Values joined by “and” are separate entries in the source; they are usually repeats but may differ in a detail not shown here. Equal values may be shown once.
T1: human CD39 (ectonucleoside triphosphate diphosphohydrolase-1) (human, UniProt P49961 1-510)
T1 chain: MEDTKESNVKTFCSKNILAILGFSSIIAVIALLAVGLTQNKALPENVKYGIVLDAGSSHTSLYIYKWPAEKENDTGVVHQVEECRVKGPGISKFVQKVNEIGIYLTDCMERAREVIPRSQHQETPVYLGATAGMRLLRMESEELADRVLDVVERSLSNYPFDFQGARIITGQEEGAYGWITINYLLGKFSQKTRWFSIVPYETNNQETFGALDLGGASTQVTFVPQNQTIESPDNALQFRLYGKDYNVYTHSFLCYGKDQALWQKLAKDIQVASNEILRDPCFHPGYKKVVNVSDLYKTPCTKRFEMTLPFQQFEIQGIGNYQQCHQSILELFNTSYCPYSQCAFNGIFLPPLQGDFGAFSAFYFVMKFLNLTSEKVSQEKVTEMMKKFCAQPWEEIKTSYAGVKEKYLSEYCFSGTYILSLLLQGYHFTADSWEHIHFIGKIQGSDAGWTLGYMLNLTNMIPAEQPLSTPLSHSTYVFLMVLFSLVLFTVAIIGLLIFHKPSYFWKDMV

T2: human CD39 (ectonucleoside triphosphate diphosphohydrolase-1) (human, UniProt P49961 1-510)
T2 sequence (looked up): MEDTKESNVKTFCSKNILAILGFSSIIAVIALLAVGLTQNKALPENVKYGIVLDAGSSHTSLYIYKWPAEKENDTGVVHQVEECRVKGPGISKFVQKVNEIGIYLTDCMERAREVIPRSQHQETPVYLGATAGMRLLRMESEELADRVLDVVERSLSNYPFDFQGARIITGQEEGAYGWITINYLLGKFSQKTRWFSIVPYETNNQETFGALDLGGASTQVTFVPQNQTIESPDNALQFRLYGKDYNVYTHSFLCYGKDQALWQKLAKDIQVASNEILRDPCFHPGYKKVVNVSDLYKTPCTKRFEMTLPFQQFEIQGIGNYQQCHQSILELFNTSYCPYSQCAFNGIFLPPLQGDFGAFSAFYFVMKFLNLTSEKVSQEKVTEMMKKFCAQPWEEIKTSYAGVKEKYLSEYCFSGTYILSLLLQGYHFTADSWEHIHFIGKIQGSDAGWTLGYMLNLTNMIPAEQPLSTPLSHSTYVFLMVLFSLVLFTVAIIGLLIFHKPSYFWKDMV


Legend:
[1] = biological target: T1, human CD39 (ectonucleoside triphosphate …); assay: flow cytometry; HCC1739BL cells
[2] = biological target: T2, human CD39 (ectonucleoside triphosphate …); assay: cell-based or functional assay
[3] = biological target: T2, human CD39 (ectonucleoside triphosphate …); assay: flow cytometry, serial dilution on CHO-hCD39 cells, anti-human IgG Fc AF488 secondary
Procedure: FIG. 10. […] Ig39-21 WT, Ig39-21 AF or NP501-BK (an optimized version of Ig39-21 by production using stably transfected cells) were serially diluted as indicated and incubated with CHO-hCD39 cells for 30 minutes at 4° C. Cells were then stained with secondary antibody (anti-human IgG (Fc specific), Alexa Fluor® 488) for 30 minutes at 4° C. and analyzed by flow cytometry. Human IgG1 isotype control antibody (KLH-hIgG1) was used in parallel.

[4] = biological target: T2, human CD39 (ectonucleoside triphosphate …); assay: flow cytometry, serial dilution on HCC1739BL cells, 30 min at 4 °C
Procedure: FIG. 1. Affinity of Ig39-21 measured by flow cytometry using human CD39hi human B lymphoblastoid (HCC1739BL) cells. Our fully human anti-CD39 antibody clone Ig39-21 produced by transient transfection was serially diluted as indicated and incubated with HCC1739BL cells for 30 minutes at 4° C., followed by flow cytometric analysis.

[5] = biological target: T2, human CD39 (ectonucleoside triphosphate …); assay: flow cytometry, serial dilution on HCC1739BL cells, anti-human IgG Fc AF488 secondary
Procedure: FIG. 11. […] Ig39-21 WT, Ig39-21 AF or NP501-BK were serially diluted as indicated and incubated with HCC1739BL cells for 30 minutes at 4° C. Afterwards, cells were stained with secondary antibody (anti-human IgG (Fc specific), Alexa Fluor® 488) for 30 minutes at 4° C. and analyzed by flow cytometry. Human IgG1 isotype control antibody (KLH-hIgG1) was used in parallel.

Row | Binder | Kd [1] | ADCC Luc-reporter assay (Jurkat hCD16a-158V effector cells), HCC1739BL target cells, EC50 [2] | ADCC Luc-reporter assay, HCC1739BL target cells, EC50 [2] | CDC assay (10% Normal Human Serum), Raji-hCD39hi target cells, EC50 [2] | Kd [3] | Kd [4] | Kd [5]
1 | Human/Rabbit chimeric clone 8D8 (antibody, V domains shown) VH: QSVEESGGRLVTPGTPLTLTCTVSGFSLSSYAISWVRQAPGKGLEYIAIINSYGTTYYASWAKGRVTISKTSSTVDLKISSPTTEDTATYFCARGDSYGSGVGLGLWGPGTLVTVSS VL: AYDMTQTPASVEVAVGGTVTIKCQASQNIYSNLAWYQQKPGQRPKLLIYRASSLASGVPSRFSGSGSGTEFTLTISGVQCDDAATYYCQQGFSSNNVDNTFGGGTEVVVK | 1.1 nM |  |  |  |  |  | 
2 | Human/Rabbit chimeric clone 8C11 (antibody, V domains shown) VH: QSVEESGGRLVTPGTHLTLTCTVSGFSLSKSIISWVRQAPGKGLEYIGIIGSSGSTYYANWAKGRFTISKTSSTTVDLRMTSLTPEDTATYFCARGLLYSGNKSWGPGTLVTVSS VL: AIDMTQTPSSVSAAVGGTVTINCQSSQSVLLNNQLSWFQQKPGQPPKLLIYDASTLESGVPSRFTGSGSGTQFTLTISDLECDDAATYYCLGGYSGNLYAFGGGTEVLVK | 1.68 nM |  |  |  |  |  | 
3 | Human/Rabbit chimeric clone 9B6 (antibody, human IgG1, V domains shown) VH: QSVKEAGGRLVTPGGSLTLTCTVSGFSLSAYGISWVRQAPGKGLEWIGIIYSSGRTYYANWAKGRFTISKTSSTTVDLKMTSLTTEDTAAYFCARSRAGISSGDGFDSWGPGTLVTVSS VL: ALVMTQTPSSVSAAVGGTVTINCQASQNIYSNLAWYQQKPGQRPQLLIYRASTLASGVPSRFKGSASGTEYTLTISGVQCDDAATYYCQQGFDSSNIDNTFGGGTEVVVT |  |  | 0.022 mg/L |  |  |  | 

Other lines, results leading:

Row | Kd [1] | ADCC Luc-reporter assay (Jurkat hCD16a-158V effector cells), HCC1739BL target cells, EC50 [2] | ADCC Luc-reporter assay, HCC1739BL target cells, EC50 [2] | CDC assay (10% Normal Human Serum), Raji-hCD39hi target cells, EC50 [2] | Kd [3] | Kd [4] | Kd [5] | Binder
4 | 2.95 nM |  |  |  |  |  |  | Human/Rabbit chimeric clone 9C10 (antibody, V domains shown) VH: QSVEESGGRLVTPGTPLTLTCTVSGFSLSSYAMSWVRQAPGKGLEYIGIISSSGSTYYASWAKGRFTISKTSTTVDLKISSPTTEDTATYFCARDRVIYSIGPYYFNLWGPGTLVTVSS VL: AYDMTQTPSSVSATVGGTVTINCQASEIIYSNLAWYQQKPGQPPKLLIYGASTLASGVPSRFKGSGSGTEYTLTISDLQCDDAATYYCQQSFSSNNVGNIFGGGTEVVVK
5 |  | 0.014 mg/L | 0.014 mg/L and 0.02 mg/L | 0.38 mg/L | 0.52 nM | 0.412 nM | 0.29 nM | Ig39-21 WT (antibody, human IgG1, kappa, V domains shown, also called fully human anti-CD39 antibody clone Ig39-21) VH: EVQLVESGGGVVRPGGSLRLSCAASGFTFSSYAMHWVRQAPGKGLEWVAVISYDVSNKYYADSVKGRFTISRDNSKNTLYLQMNSLRAEDTAVYYCARSYYYYYGMDVWGQGTTVTVSS VL: DVVMTQSPSSLSASVGDRVTITCRASQSISRYLAWYQQKPGQAPRLLIYDASNRATGIPVRFSGSGSGTDFTLTISRLEPEDFAVYYCQQFGRSPRTFGQGTRLEIKR
6 |  |  | 0.00086 mg/L and 0.0008 mg/L | 0.25 mg/L | 0.51 nM |  | 0.35 nM | Ig39-21 AF (antibody, human IgG1, kappa, V domains shown, afucosylated glycan (produced in presence of fucosylation inhibitor 2-Deoxy-2-fluoro-L-fucose), also called afucosylated Ig39-21) VH: EVQLVESGGGVVRPGGSLRLSCAASGFTFSSYAMHWVRQAPGKGLEWVAVISYDVSNKYYADSVKGRFTISRDNSKNTLYLQMNSLRAEDTAVYYCARSYYYYYGMDVWGQGTTVTVSS VL: DVVMTQSPSSLSASVGDRVTITCRASQSISRYLAWYQQKPGQAPRLLIYDASNRATGIPVRFSGSGSGTDFTLTISRLEPEDFAVYYCQQFGRSPRTFGQGTRLEIKR
7 |  |  | 0.0017 mg/L | 0.31 mg/L | 0.48 nM |  | 0.16 nM | NP501-BK (antibody, V domains shown, decreased fucosylation by optimized production process, 'An optimized version of Ig39-21 by production using stably transfected cells' (CHO); also called Optimized Ig39-21) VH: EVQLVESGGGVVRPGGSLRLSCAASGFTFSSYAMHWVRQAPGKGLEWVAVISYDVSNKYYADSVKGRFTISRDNSKNTLYLQMNSLRAEDTAVYYCARSYYYYYGMDVWGQGTTVTVSS VL: DVVMTQSPSSLSASVGDRVTITCRASQSISRYLAWYQQKPGQAPRLLIYDASNRATGIPVRFSGSGSGTDFTLTISRLEPEDFAVYYCQQFGRSPRTFGQGTRLEIKR

Source: patent publication US20250059294A1 (PURINOMIA BIOTECH, published 2025)
